Assay results reported in IntAct's records for PubMed 14519764.

B1: Metabotropic glutamate receptor 1 (Rattus norvegicus (Rat)), P23385 (parent)
chain: MVRLLLIFFPMIFLEMSILPRMPDRKVLLAGASSQRSVARMDGDVIIGALFSVHHQPPAEKVPERKCGEIREQYGIQRVEAMFHTLDKINADPVLLPNITLGSEIRDSCWHSSVALEQSIEFIRDSLISIRDEKDGLNRCLPDGQTLPPGRTKKPIAGVIGPGSSSVAIQVQNLLQLFDIPQIAYSATSIDLSDKTLYKYFLRVVPSDTLQARAMLDIVKRYNWTYVSAVHTEGNYGESGMDAFKELAAQEGLCIAHSDKIYSNAGEKSFDRLLRKLRERLPKARVVVCFCEGMTVRGLLSAMRRLGVVGEFSLIGSDGWADRDEVIEGYEVEANGGITIKLQSPEVRSFDDYFLKLRLDTNTRNPWFPEFWQHRFQCRLPGHLLENPNFKKVCTGNESLEENYVQDSKMGFVINAIYAMAHGLQNMHHALCPGHVGLCDAMKPIDGRKLLDFLIKSSFVGVSGEEVWFDEKGDAPGRYDIMNLQYTEANRYDYVHVGTWHEGVLNIDDYKIQMNKSGMVRSVCSEPCLKGQIKVIRKGEVSCCWICTACKENEFVQDEFTCRACDLGWWPNAELTGCEPIPVRYLEWSDIESIIAIAFSCLGILVTLFVTLIFVLYRDTPVVKSSSRELCYIILAGIFLGYVCPFTLIAKPTTTSCYLQRLLVGLSSAMCYSALVTKTNRIARILAGSKKKICTRKPRFMSAWAQVIIASILISVQLTLVVTLIIMEPPMPILSYPSIKEVYLICNTSNLGVVAPVGYNGLLIMSCTYYAFKTRNVPANFNEAKYIAFTMYTTCIIWLAFVPIYFGSNYKIITTCFAVSLSVTVALGCMFTPKMYIIIAKPERNVRSAFTTSDVVRMHVGDGKLPCRSNTFLNIFRRKKPGAGNANSNGKSVSWSEPGGRQAPKGQHVWQRLSVHVKTNETACNQTAVIKPLTKSYQGSGKSLTFSDASTKTLYNVEEEDNTPSAHFSPPSSPSMVVHRRGPPVATTPPLPPHLTAEETPLFLADSVIPKGLPPPLPQQQPQQPPPQQPPQQPKSLMDQLQGVVTNFGSGIPDFHAVLAGPGTPGNSLRSLYPPPPPPQHLQMLPLHLSTFQEESISPPGEDIDDDSERFKLLQEFVYEREGNTEEDELEEEEDLPTASKLTPEDSPALTPPSPFRDSVASGSSVPSSPVSESVLCTPPNVTYASVILRDYKQSSSTL

Variants of: B1
Settings: with pp1g_rat Ppp1cc

Row | Variant | effect of a mutation on the interaction
1 | S892A | decreasing interaction
